Results on one molecule are retold here after article PMC3814645 (Genes & Development, 2013).

The target in this assay is eIF4E (endogenous) (human (endogenous in HCT116), UniProt P06730 1-217). Nature of the assay: co-IP.
Sequence of eIF4E (endogenous) (P06730 whole entry): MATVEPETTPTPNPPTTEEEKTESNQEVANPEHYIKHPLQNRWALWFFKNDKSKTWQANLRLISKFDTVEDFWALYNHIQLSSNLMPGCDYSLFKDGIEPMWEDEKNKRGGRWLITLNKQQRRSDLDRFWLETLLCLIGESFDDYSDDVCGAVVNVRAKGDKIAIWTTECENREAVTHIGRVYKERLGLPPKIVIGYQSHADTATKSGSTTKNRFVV

B1: p-RNPC1 (endogenous RNPC1 phosphorylated at Ser195) (natural protein, human (endogenous in HCT116 and RKO), UniProt Q9H0Z9 1-239, looked up)
chain: MLLQPAPCAPSAGFPRPLAAPGAMHGSQKDTTFTKIFVGGLPYHTTDASLRKYFEGFGDIEEAVVITDRQTGKSRGYGFVTMADRAAAERACKDPNPIIDGRKANVNLAYLGAKPRSLQTGFAIGVQQLHPTLIQRTYGLTPHYIYPPAIVQPSVVIPAAPVPSLSSPYIEYTPASPAYAQYPPATYDQYPYAASPATAASFVGYSYPAAVPQALSAAAPAGTTFVQYQAPQLQPDRMQ
modifications: phosphoserine at 195
With B1, the “ratio of p-RNPC1 versus RNPC1 in anti-eIF4E immunocomplexes” value came to 0.12.
